Measured values as given in publication PMC5425604, “Fe65-PTB2 Dimerization Mimics Fe65-APP Interaction” (Frontiers in Molecular Neuroscience, 2017).
Several values for one entry are separate records, joined by “and”; a condition that tells them apart may be missing. Equal entries are not always repeated.

Key:
[1] = target: the molecule itself; assay: native gel or EMSA; Blue Native gel of cytosolic and membrane fractions of HEK293 cells expressing Fe65-HA, with or without APP-myc; blots for HA and myc
[2] = target: the molecule itself; assay: SEC-MALS; MALS in line with SEC, refractive index; SEC buffer with 5% (v/v) glycerol
[3] = target: the molecule itself; assay: SAXS; 0.25-6 mg/mL, 20 mM Na2HPO4 pH 6.5, 150 mM NaCl, 2 mM DTT (reducing), 300 K; monomer to dimer

B1: Fe65-HA (natural protein, human, UniProt O00213 1-710, looked up)
chain: MSVPSSLSQSAINANSHGGPALSLPLPLHAAHNQLLNAKLQATAVGPKDLRSAMGEGGGPEPGPANAKWLKEGQNQLRRAATAHRDQNRNVTLTLAEEASQEPEMAPLGPKGLIHLYSELELSAHNAANRGLRGPGLIISTQEQGPDEGEEKAAGEAEEEEEDDDDEEEEEDLSSPPGLPEPLESVEAPPRPQALTDGPREHSKSASLLFGMRNSAASDEDSSWATLSQGSPSYGSPEDTDSFWNPNAFETDSDLPAGWMRVQDTSGTYYWHIPTGTTQWEPPGRASPSQGSSPQEESQLTWTGFAHGEGFEDGEFWKDEPSDEAPMELGLKEPEEGTLTFPAQSLSPEPLPQEEEKLPPRNTNPGIKCFAVRSLGWVEMTEEELAPGRSSVAVNNCIRQLSYHKNNLHDPMSGGWGEGKDLLLQLEDETLKLVEPQSQALLHAQPIISIRVWGVGRDSGRERDFAYVARDKLTQMLKCHVFRCEAPAKNIATSLHEICSKIMAERRNARCLVNGLSLDHSKLVDVPFQVEFPAPKNELVQKFQVYYLGNVPVAKPVGVDVINGALESVLSSSSREQWTPSHVSVAPATLTILHQQTEAVLGECRVRFLSFLAVGRDVHTFAFIMAAGPASFCCHMFWCEPNAASLSEAVQAACMLRYQKCLDARSQASTSCLPAPPAESVARRVGWTVRRGVQSLWGSLKPKRLGAHTP
notes: Fe65 (APBB1); called full-length Fe65 in the native gel analysis; human stated for Fe65 in general; Printed both as FE65-HA and HA-Fe65; also called HA-Fe65; HA-tagged Fe65; source: HEK293, transfected (pcDNA3.1), in lysate or subcellular fraction
- stoichiometry N [1]: 2

B2: Human Fe65-PTB2 (residues 534-667), crystallization construct (domain or fragment, UniProt O00213 534-667, looked up)
chain: APKNELVQKFQVYYLGNVPVAKPVGVDVINGALESVLSSSSREQWTPSHVSVAPATLTILHQQTEAVLGECRVRFLSFLAVGRDVHTFAFIMAAGPASFCCHMFWCEPNAASLSEAVQAACMLRYQKCLDARSQ
notes: Fe65 (APBB1), human, PTB2 domain, residues 534-667 of UniProtKB APBB1_HUMAN O00213; source: recombinantly expressed and purified as described previously (Radzimanowski et al., 2008a); final SEC with 5% glycerol
- stoichiometry N [2]: 2 and 4

B3: Wildtype Fe65-PTB2 (pETHis construct for NMR and SAXS) (domain or fragment, human, UniProt O00213 534-667, looked up)
chain: B2 chain
notes: Fe65 (APBB1), human, PTB2 domain; limits 534-667 are stated for recombinant Fe65-PTB2 in general, not separately for the pETHis construct; also called wt Fe65-PTB2
- stoichiometry N [3]: 2
